The values below come from a protein production outcome set (Wang et al. 2014).

The data set is described as follows: label from the status in PepcDB records.
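Further: failed if final PepcDB status was selected cloned or expressed and not failed if soluble or beyond.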

In the case of “MEEKANTGQVIIVLTEHLTFGTLLIPYMAEKSDDGTYQLIEQAFHASPEAISRMNEAEQQAIDIASHYTEKYLMGIYSREKTVSRFLRKLSEDPERVKNNIRPFIEKKMQEMLTLIRHHNLPLYQKQVGSKLLYAHHAYHVHPHDVEIRFTFLADETNFRYQLQCYYDGQPLSLSEQKPVIVLTSSPSALLLGMELYFFPHIESVRILPFTKKKKISVPASQIEKYIDNIVIPIARYHEITTQGLNIIEETYACEAVLSLEDTIYDEQMLRLSFRYGDQSFTPDTVTEMKKIIYRNDFGEIFFFRRDSDAEEEKLRMLTDSGLQRVSDVHFKLSPDAPEKTITEWISTYREMLQQSFLLTGNMGNTPYCLDEIRIEQSCDDEPDWFELHITVVIGNLRIPFSRFRKHILEEKREFLLPDGRMILLPEEWFSKYGNLLELGTQTETGIRLKPTFVGAVQSALEENGPKNLLFKREIRNVPVPQGLNAKLRPYQQKGFSWMVQLNKQGFGGCLADDMGLGKTLQTLTLLQYIYKPLSPDAVTAPMKPVFTETTASDSQPDKECTANNPPVREQIADAEGQFSLFSFSSEDELLPDAREIREKNRPKEDDHRQEHGKNSRKPATLIVVPTSLLHNWRREAKRFTTLAIAEYNSNTAFPKGHPEKFFNHFHLIFTTYGMMRNNIDILRSYTFEYIVLDESQNIKNNDSLTFRSVIQLQGKHRIALTGTPIENSLKDLWAQFRFLQPDLLGEESTFHKQFIIPIRQGNVRMEKRLQQIIAPFILRRSKSEVAPELPPLTEETIYCAMSEKQGESYEQEKNSLRNILLQQPENKDRYHMFSILNGILRLRQLACHPQLIFPDFDGVSGKTEQIIDTFDTLRSEGHKVLIFSSFVRHLEILAEVFRQRGWKYALLTGSTNNRPSEIAHFTEQKDVQAFLISLKAGGVGLNLTQADYVFIIDPWWNPAAESQAIARAHRIGQDKQVIAYRFITQNSIEEKILQLQEDKRRLAETFITDSEALPALSNEQWADLLK”, the protein production entry is “failed”.
Take “MEEKKDFYDTDELRDFMALVEKTNDIKKIALFRILAFTGIRKGELLALEWKDYRKSTLDINKAISHSPVGYEILPPKANSNRLLSLDEKTCKILDELHQTYPESTRIFESENGGMLSPSKPRKWLLEITKEKEIEPIRIHAFRHTHASLLFESGMSLKQVQYRLGHADLKTTMNIYTHITKLEHHHHHH”: the protein production entry was “not failed”.
Take “MEENLISMREDHSFHVRYRMEASCLELALEGERLCKSGDCRAGVSFFEAAVQVGTEDLKTLSAIYSQLGNAYFYLHDYAKALEYHHHDLTLARTIGDQLGEAKASGNLGNTLKVLGNFDEAIVCCQRHLDISRELNDKVGEARALYNLGNVYHAKGKSFGCPGPQDVGEFPEEVRDALQAAVDFYEENLSLVTALGDRAAQGRAFGNLGNTHYLLGNFRDAVIAHEQRLLIAKEFGDKAAERRAYSNLGNAYIFLGEFETASEYYKKTLLLARQLKDRAVEAQSCYSLGNTYTLLQDYEKAIDYHLKHLAIAQELNDRIGEGRACWSLGNAYTALGNHDQAMHFAEKHLEISREVGDKSGELTARLNLSDLQMVLGLSYSTNNSIMSENTEIDSSLNGVRPKLGRRHSMENMELMKLTPEKVQNWNSEILAKQKPLIAKPSAKLLFVNRLKGKKYKTNSSTKVLQDASNSIDHRIPNSQRKISADTIGDEGFFDLLSRFQSNRMDDQRCCLQEKNCHTASTTTSSTPPKMMLKTSSVPVVSPNTDEFLDLLASSQSRRLDDQRASFSNLPGLRLTQNSQSVLSHLMTNDNKEADEDFFDILVKCQGSRLDDQRCAPPPATTKGPTVPDEDFFSLILRSQGKRMDEQRVLLQRDQNRDTDFGLKDFLQNNALLEFKNSGKKSADH”: the protein production entry is reported as “failed”.
In the case of “MEENMEKNKIKKIALIFNILQVIALAVFEVVLFRLVSYKNKLILDYVPAKYFIILEVVLVAITIIPFLIRKGKKTSIISMVISILMAIVLFATSILGVVYDKDIKNVLNKADQTIDDVVENSKLSTEEYGVYILKSDEAEELKDIENYNLGYNLSYAKDETDSVLKNVLAKANNKLIANEYDDLLKMADELLNTEKTAFIFNQAMLDLIENAGDDTNDGKNNGIYKNFTNKIKCIYVVNVKTAVKEYGGDKNVTKECFNVYISGIDTEGDVTAKSRSDVNIIMSINPVTHQVLLLSTPRDYYVPLSISNGVKDKLTHAGNYGINVSMDTLEMLYDIKLDYFIRLNFTGFVDIIDALGGIDVVSDYSFSTHGYSYSEGLNSNLSGIQALWFARERHAFAEGDKQRGRDQMKVIEAVIKKAQSSALLNNYDEIFANISKSFQTNMPKKDIKALVKYQLNETPNWKVVSTSVTGTGRSDVTYSVPNSRAYVMDPDENSVNEAKKLLQKIQNNKKIKVKTTTE”, the protein production result is listed as “failed”.
With “MEESKELNAVIDVIMLAGTILLKSGSEIHRVEDTMIRIAHSQGIVDCNVLAMPAAIFFSIENTNISRMKRVTSSSYNIEKVCDVNQISRQLVGGQIDLETAFKQLTALQAKPLPYTKLQVTLAATFSAPFFSVMFSGNIYDALGAGVATLFGFAFSLYVEKFIRIPFVTAFAGAFVFGIIAQFWARYTGFPSTADLIIAGAVMPFVPGIALTNAVRDIMTNHINSGMSKMFESLLITLALGAGTSVALVLMN” the entry was “failed”; with “MEETILIVSFLLFLILSNVINRIFPKLPLPFIQLVFGILSGLVFHKSQVHIDPELFLAFVIAPLNFREGQESDIGSFIKYRAIILYLILPTVFLTAIVVGYVAGHLLPVSLPLAACFALGAALGPTDAVAFISIAKRFQFPKRAENILKLEGLLNDASGLVSFQFALTALVTGYFSLAKASLKLALAIMGGFLIGLLFAFLMRLCLTVLEKFDAADVTGALLLELTLPFVAYFVADLLGFSAIIAVVVAGVMQANRLKKVTLFDAQVDRVTSVIWETLNFILNGLVFLIFGRELTRIIGPLLTSNAYSNFDLISIVVLVTCTLFLVRFLAVSCFYAWRSFKYHKSFKKYWREIQLLTFSGVKGSVSIATILLLPKHSVIGELGYSLILFTVGAVTLMSFLTGLLVLPKLAPPLQVKDDYLIRLSILTKVLSVLEEDGKSSENQASFYAVIDNYNSRIRHLILEQESSDIKKDLAELQLMMLSIESDGLEAAYRYGNISIKEYRIYQRYLKYLERQVNRSFVSNITYSLTILMRVIRGIVHEFLTFGQGIRNRKKHFKNRKRLLAEVNRQHLTDLYLSNNDLILETLEDMEGYYNATLIDFLQNERIRDAELIKSGLFVERVIARITPDILNETLRGYYLERRTISEFERDGLISSKESQILRDNVNELESYSLRDSQSSIPYQLLDLKK”, “failed”.
With “MEETLATPDATRRSLSPSCSATVKSRAAGFERRTKRRLSETNASVREDREEAEEEEDEVKEKIEALQRIIPGGAALGVDALFEETAGYILSLQCQIKTIKVLTSFLQRIDQEDMKFGG” the entry was “failed”; with “MEEVEEFKYEPKSVKEIFIEMKDTVELMVDLAYASLLFGDKEIAEEVLELEERIDLLNYQLMMHSVLAARNVKEAEQVITILQIANAIEDISNAAGDLAKMVLEGVELHPVIKETILEGEEIIGKIQVYPESVIVGKTLGELDLATNTGVWIIAVRRGKRWIFGPNENFKIRAGDVLIGRGTRTSIDHLKEIARGAIRVIGNERA”, “not failed”.
As for “MEEVKFYVRCYDKIELARMYFPNLSNPVSVAKLRRWMRNCMPLMEELMAGDFHPKMKMFSAREVRLIVRYLGEPDGYVFMHEHADVK”, the entry is “failed”; as for “MEEVSSEMEVEVQNRQLSDSSPAQNVKKFGLKNSIQTNFGSDYVFQIVPKIDWTAIAVSLSTNTVKLYSPVTGQYYGECKGHSDTVNQIAFSSDSAASPHVLHSCSSDGTIRSWDTRSFQQVSRIDTGNDQEIFSFSYGGAADNLLAGGCKEQVLLWDWRNSKQVACLEESHMDDVTQVHFVPNKPNKLLSASVDGLICLFNTEGDINDDDHLESVINVGTSIGKIGFLGDGYKKLWCLTHIETLSIWNWEDGSCEVNLEKARELASDSWTQDNVDYFVDCHCPGGEDLWVIGGTCAGTVGYFPVNYKQPGSIGTAEAILGGGHIDVVRSVLQMPGEYGGAAGLFGWTGGEDGRLCCWKSDEDATEINRSWTSSELVVKPPRNRKKNRHSPY”, “failed”.
Take “MEFIVDSVDKTMHIGRQLGSLVNKGDILCLTGDLGTGKTHISKGIAEGLGIDEHITSPTFNIVNEYHSGRLTLYHFDVYRVNDPDEIEAIGFDEYIFGDGVSLIEWANYIEELIPEEYIHIKIEKLPDMGENFRKITINGYGDRYNYIKEIKECLEHHHHHH”: the protein production entry was “not failed”.
As for “MEFKDYYATLGVEPSAGDAEIKTAYRRLARKYHPDVSKEAGAEDKFKAINEAYEALRDPAKRKAYDQLKAQGFRPGDEFQAPPNYGGGQGFDFEEVFGNGGAGGGFSDFFESLFAGQRGGRPRGPGAGPGAGAGPQARGDTRAKLAVPLEAVYSGDSVRITINGKQLDVRVPKGVQPGQVIRLSGQGNGGGNLLLEIEYAAHPHFEVDGRNILYTLQVMPWQAALGTTISVPTLGGSVELKVPADSDAGRKLRLRGRGLPGTTPGDQIVELEILAPAPTDDAQKKAYRNLAKAFGETVS”, the entry is “failed”; as for “MEFKDYYKIMGVPRDASQDDIKRAYRKLARKYHPDVSKDPQAEARFKELGEAYEVLKDPEKRVAYDRLGTNWKADQEFRPPPDWNAGFEFSQQGFTGADAAQFSEFFESLFGRSFRAEQARRGGETHGGPGGAFFHAPGEDRYAKIMIDLEDSYHGATRTISLQVPEVDAEGHVSTREHKLNVVIPRGIRPRQYIRLAGKGAPGHGQGKAGDLYLEIEFRSHPIYRVDEHDVYLDLPVAPWEAALGATITVPTPEGMVDLKIPADSTTGRKLRLKGRGIPGKIPGDFYVVLRIVPPPATDESDKAFYRSMAEQFKSFNPRAKLGVQA”, “failed”.
Turning to “MEFLDWKFIFIIITFAFIGLICIFKRSKIGLTAASVGIIGSLILWGFFKVSIKVRNFLDGVGLSFKDLLNFLFVVITAIIAFLVIFLFLKAFNNFGSKIRKR”, the protein production entry was “failed”.
As for “MEFPDLTVEIKGPDVVGVNKLAEYEVHVKNLGGIGVPSTKVRVYINGTLYKNWTVSLGPKEEKVLTFNWTPTQEGMYRINATVDEENTVVELNENNNVATFLEHHHHHH”, the entry is “not failed”; as for “MEFRFENLLGAPYRGGNAVITKNTQLISPVGNRVSVTDLSKNHSVTLPLETSTNICRLASSPDGTFLLAVDEQNRCLFINLPRRVVLHRITFKDKVGALKFSPNGKFIAVGIGKLVEIWRSPGFRRAVLPFERVRTFANSDDKVVSLEWSLDSDYLLVGSRDLAARLFCVRKLKGVLNKPFLFLGHRDSVVGCFFGVDKMTNKVNRAFTIARDGYIFSWGYTEKDVKMDESEDGHSEPPSPVTPDRADEVMVENGGGVGTELKKRKEYDGKGLESDEEGDDDDEEYMHRGKWVLLRKDGCNQASAKVTACDYHQGLDMVVVGFSNGVFGLYQMPDFICIHLLSISRQKLTTAVFNERGNWLTFGCAKLGQLLVWDWRTETYILKQQGHYFDVNCVTYSPDSQLLATGADDNKVKVWNVMSGTCFITFTEHTNAVTALHFMADNHSLLSASLDGTVRAWDFKRYKNYKTYTTPTPRQFVSLTADPSGDVVCAGTLDSFEIFVWSKKTGQIKDILSGHEAPVHGLMFSPLTQLLASSSWDYTVRLWDVFASKGTVETFRHNHDVLTVAFRPDGKQLASSTLDGQINFWDTIEGVLMYTIEGRRDIAGGRVMTDRRSAANSSSGKCFTTLCYSADGGYILAAGTSRYICMYDIADQVLLRRFQISHNLSLDGVLDFLHSKKMTEAGPIDLIDDDNSDEEGGIDKQSRGNLGYDLPGSRPNRGRPIIRTKSLSIAPTGRSFAAATTEGVLIFSIDDTFIFDPTDLDIDVTPEAVEAAIEEDEVSRALALSMRLNEDSLIKKCIFAVAPADIKAVAISVRQKYLERLMEALVDLLENCPHLEFILHWCQEICKAHGSSIQRNYRTLLPALRSLQKAITRAHQDLADMCSSNEYTLRYLCSVPNNH”, “failed”; as for “MEFVLASASPARRRLLQGIGINPIVHVSHFDESQIHHDDPAQLVEALAAAKAKTVAQHRQDALILGCDSVLHVRGEILGKPASPTEAIARWQTMRGHYGLLYTGHALVDQTQNQLLVRHGVTKVYFAAIDDDTIAAYVRSGEPLQCAGCFALEGKGGLFIEKIEGCHSNVIGLSLPLLREMLAHLGYTVQTLWP”, “failed”.
